# Source: publication PMC6915604
# Target: β-glucosidase with N-terminal K-coil and N-terminal His-tag (KG)
substance,measurement,value
"human H chain ferritin with C-terminal E-coil, without the sequence of a His-tag (HE)","retention rate of relative enzyme activity of the KG-HE complex recovered in a magnetic field, after usage cycles 1 to 3 (93.8%, 82.5%, 56.3%); pH 4.5, 45 °C, 20 min",93.8%
